Experimental data from patent US20100034834A1.

Experiments:
[1] = biological target: NY-ESO-1 peptide … presented on peptide-pulsed T2 cells (UniProt P61769); test: cell-based or functional assay
[2] = biological target: g9-154 (gp100) peptide … presented on peptide-pulsed T2 cells (UniProt P61769); test: cell-based or functional assay

IFN-γ secreted by transfected CD4+ T cells (Patient) with peptide-pulsed T2 cells [1] [pg/mL] | IFN-γ secreted by transfected CD8+ T cells (Patient) with peptide-pulsed T2 cells [1] [pg/mL] | IFN-γ secreted by transfected CD4+ T cells (Patient) with peptide-pulsed T2 cells [2] [pg/mL] | IFN-γ secreted by transfected CD8+ T cells (Patient) with peptide-pulsed T2 cells [2] [pg/mL] | Substance
10700 | 8860 | < 30 | < 30 | 1G4 mut3 (G70A/A71I): WT 1G4 alpha chain + beta chain G70A/A71I (TCR)
8970 | 10100 | < 30 | < 30 | 1G4 mut2 (A71I): WT 1G4 alpha chain + beta chain A71I (TCR)
6380 | 10200 | < 30 | < 30 | 1G4 mut1 (G70A): WT 1G4 alpha chain + beta chain G70A (TCR)
